From US20140087995A1 (published 2014)
Numbered stars: 1 amine (or outer) side, 2 acyl side, 3 side chain; on linkers, the order of the positions; unused ones are H or OH. Bridge positions count the residues as written; N and C are the ends. Side chains are listed from the residue outwards. Ends that are not written are not given here. * marks the point of attachment. C20 diacid = O=C(O)CCCCCCCCCCCCCCCCCCC(=O)*; γGlu = O=C(O)[C@H](CCC(=O)[*:2])N[*:1]; AEEA = NCCOCCOCC(=O)O

T1: human calcitonin receptor (human, UniProt P30988 25-474)
T1 construct: whole, on cells; Assay used cell membranes, not intact cells; also called hCTR; hCT
T1 sequence (looked up): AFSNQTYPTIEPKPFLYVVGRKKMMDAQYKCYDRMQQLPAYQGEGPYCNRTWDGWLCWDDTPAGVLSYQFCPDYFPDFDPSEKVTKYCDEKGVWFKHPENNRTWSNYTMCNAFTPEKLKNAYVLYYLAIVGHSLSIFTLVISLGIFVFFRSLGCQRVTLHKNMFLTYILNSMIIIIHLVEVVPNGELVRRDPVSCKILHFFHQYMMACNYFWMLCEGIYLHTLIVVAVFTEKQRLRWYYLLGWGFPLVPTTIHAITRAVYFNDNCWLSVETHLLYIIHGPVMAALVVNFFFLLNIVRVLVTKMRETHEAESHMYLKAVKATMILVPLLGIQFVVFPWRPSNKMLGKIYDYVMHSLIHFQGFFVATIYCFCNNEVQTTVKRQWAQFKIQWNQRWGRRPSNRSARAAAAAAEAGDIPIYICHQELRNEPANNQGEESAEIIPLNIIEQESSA

T2: human amylin receptor (amylin 3(a) receptor: human calcitonin receptor with RAMP-3) (human, UniProt P30988 25-474; O60896 24-148)
T2 construct: whole, on cells; Assay used cell membranes of the Amylin 3(a)/CRE-luc BHK cells, not intact cells; also called hAmylin-R; hAmylinR
T2 sequence (looked up) 1: T1 sequence (looked up)
T2 sequence (looked up) 2: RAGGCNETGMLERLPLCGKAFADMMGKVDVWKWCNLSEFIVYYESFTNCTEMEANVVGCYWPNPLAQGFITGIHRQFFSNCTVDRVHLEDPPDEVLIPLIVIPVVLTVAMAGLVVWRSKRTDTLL

T3: human calcitonin receptor (human, UniProt P30988 25-474)
T3 construct: whole, on cells; Assay used cell membranes of the transfected BHK cells; also called hCTR; hCT
T3 sequence (looked up): T1 sequence (looked up)

B1: N^-1-[(4S)-4-carboxy-4-(19-carboxynonadecanoylamino)butanoyl]-Gly[Arg1,His14,Arg17,Pro21,Pro27,Pro34]-h-amylin (peptide)
peptide: {C20 diacid-γGlu}-GRCNTATCATQRLAHFLRHSSPNFGAIPSSTNVGPNTY-NH2
modifications: disulfide 3-8
SMILES: CC[C@H](C)[C@H](NC(=O)[C@H](C)NC(=O)CNC(=O)[C@H](Cc1ccccc1)NC(=O)[C@H](CC(N)=O)NC(=O)[C@@H]1CCCN1C(=O)[C@H](CO)NC(=O)[C@H](CO)NC(=O)[C@H](Cc1c[nH]cn1)NC(=O)[C@H](CCCNC(=N)N)NC(=O)[C@H](CC(C)C)NC(=O)[C@H](Cc1ccccc1)NC(=O)[C@H](Cc1c[nH]cn1)NC(=O)[C@H](C)NC(=O)[C@H](CC(C)C)NC(=O)[C@H](CCCNC(=N)N)NC(=O)[C@H](CCC(N)=O)NC(=O)[C@@H](NC(=O)[C@H](C)NC(=O)[C@@H]1CSSC[C@H](NC(=O)[C@H](CCCNC(=N)N)NC(=O)CNC(=O)CC[C@H](NC(=O)CCCCCCCCCCCCCCCCCCC(=O)O)C(=O)O)C(=O)N[C@@H](CC(N)=O)C(=O)N[C@@H]([C@@H](C)O)C(=O)N[C@@H](C)C(=O)N[C@@H]([C@@H](C)O)C(=O)N1)[C@@H](C)O)C(=O)N1CCC[C@H]1C(=O)N[C@@H](CO)C(=O)N[C@@H](CO)C(=O)N[C@H](C(=O)N[C@@H](CC(N)=O)C(=O)N[C@H](C(=O)NCC(=O)N1CCC[C@H]1C(=O)N[C@@H](CC(N)=O)C(=O)N[C@H](C(=O)N[C@@H](Cc1ccc(O)cc1)C(N)=O)[C@@H](C)O)C(C)C)[C@@H](C)O
B2: N{-1}-[(4S)-4-carboxy-4-(19-carboxynonadecanoylamino)butanoyl]-Gly[Arg1,His14,Arg17,Pro21,Pro27]-h-amylin (peptide)
peptide: {C20 diacid-γGlu}-GRCNTATCATQRLAHFLRHSSPNFGAIPSSTNVGSNTY-NH2
modifications: disulfide 3-8
SMILES: CC[C@H](C)[C@H](NC(=O)[C@H](C)NC(=O)CNC(=O)[C@H](Cc1ccccc1)NC(=O)[C@H](CC(N)=O)NC(=O)[C@@H]1CCCN1C(=O)[C@H](CO)NC(=O)[C@H](CO)NC(=O)[C@H](Cc1c[nH]cn1)NC(=O)[C@H](CCCNC(=N)N)NC(=O)[C@H](CC(C)C)NC(=O)[C@H](Cc1ccccc1)NC(=O)[C@H](Cc1c[nH]cn1)NC(=O)[C@H](C)NC(=O)[C@H](CC(C)C)NC(=O)[C@H](CCCNC(=N)N)NC(=O)[C@H](CCC(N)=O)NC(=O)[C@@H](NC(=O)[C@H](C)NC(=O)[C@@H]1CSSC[C@H](NC(=O)[C@H](CCCNC(=N)N)NC(=O)CNC(=O)CC[C@H](NC(=O)CCCCCCCCCCCCCCCCCCC(=O)O)C(=O)O)C(=O)N[C@@H](CC(N)=O)C(=O)N[C@@H]([C@@H](C)O)C(=O)N[C@@H](C)C(=O)N[C@@H]([C@@H](C)O)C(=O)N1)[C@@H](C)O)C(=O)N1CCC[C@H]1C(=O)N[C@@H](CO)C(=O)N[C@@H](CO)C(=O)N[C@H](C(=O)N[C@@H](CC(N)=O)C(=O)N[C@H](C(=O)NCC(=O)N[C@@H](CO)C(=O)N[C@@H](CC(N)=O)C(=O)N[C@H](C(=O)N[C@@H](Cc1ccc(O)cc1)C(N)=O)[C@@H](C)O)C(C)C)[C@@H](C)O
notes: also called compound 99
B3: N^ε1-[2-[2-[2-[[(4S)-4-carboxy-4-(19-carboxynonadecanoylamino)butanoyl]amino]ethoxy]ethoxy]acetyl]-[Arg17,Pro21,Pro27,Pro28,Pro31]-h-amylin (peptide)
peptide: K([AEEA-γGlu-C20 diacid])CNTATCATQRLANFLRHSSPNFGAIPPSTPVGSNTY-NH2
modifications: disulfide 2-7
notes: Synthetic analogue; also called compound 53
B4: N^ε1-[2-[2-[2-[[(4S)-4-carboxy-4-(19-carboxynonadecanoylamino)butanoyl]amino]ethoxy]ethoxy]acetyl]-[Arg17,Pro21,Pro27,Pro29,Pro34]-h-amylin (peptide)
peptide: K([AEEA-γGlu-C20 diacid])CNTATCATQRLANFLRHSSPNFGAIPSPTNVGPNTY-NH2
modifications: disulfide 2-7; N-terminus assumed
SMILES: CC[C@H](C)[C@H](NC(=O)[C@H](C)NC(=O)CNC(=O)[C@H](Cc1ccccc1)NC(=O)[C@H](CC(N)=O)NC(=O)[C@@H]1CCCN1C(=O)[C@H](CO)NC(=O)[C@H](CO)NC(=O)[C@H](Cc1c[nH]cn1)NC(=O)[C@H](CCCNC(=N)N)NC(=O)[C@H](CC(C)C)NC(=O)[C@H](Cc1ccccc1)NC(=O)[C@H](CC(N)=O)NC(=O)[C@H](C)NC(=O)[C@H](CC(C)C)NC(=O)[C@H](CCCNC(=N)N)NC(=O)[C@H](CCC(N)=O)NC(=O)[C@@H](NC(=O)[C@H](C)NC(=O)[C@@H]1CSSC[C@H](NC(=O)[C@@H](N)CCCCNC(=O)COCCOCCNC(=O)CC[C@H](NC(=O)CCCCCCCCCCCCCCCCCCC(=O)O)C(=O)O)C(=O)N[C@@H](CC(N)=O)C(=O)N[C@@H]([C@@H](C)O)C(=O)N[C@@H](C)C(=O)N[C@@H]([C@@H](C)O)C(=O)N1)[C@@H](C)O)C(=O)N1CCC[C@H]1C(=O)N[C@@H](CO)C(=O)N1CCC[C@H]1C(=O)N[C@H](C(=O)N[C@@H](CC(N)=O)C(=O)N[C@H](C(=O)NCC(=O)N1CCC[C@H]1C(=O)N[C@@H](CC(N)=O)C(=O)N[C@H](C(=O)N[C@@H](Cc1ccc(O)cc1)C(N)=O)[C@@H](C)O)C(C)C)[C@@H](C)O
notes: Synthetic analogue; also called compound 56
B5: N^ε1-[2-[2-[2-[[(4S)-4-carboxy-4-(19-carboxynonadecanoylamino)butanoyl]amino]ethoxy]ethoxy]acetyl]-[Arg17,Pro21,Pro27,Pro28,Pro34]-h-amylin (peptide)
peptide: K([AEEA-γGlu-C20 diacid])CNTATCATQRLANFLRHSSPNFGAIPPSTNVGPNTY-NH2
modifications: disulfide 2-7; N-terminus assumed
SMILES: CC[C@H](C)[C@H](NC(=O)[C@H](C)NC(=O)CNC(=O)[C@H](Cc1ccccc1)NC(=O)[C@H](CC(N)=O)NC(=O)[C@@H]1CCCN1C(=O)[C@H](CO)NC(=O)[C@H](CO)NC(=O)[C@H](Cc1c[nH]cn1)NC(=O)[C@H](CCCNC(=N)N)NC(=O)[C@H](CC(C)C)NC(=O)[C@H](Cc1ccccc1)NC(=O)[C@H](CC(N)=O)NC(=O)[C@H](C)NC(=O)[C@H](CC(C)C)NC(=O)[C@H](CCCNC(=N)N)NC(=O)[C@H](CCC(N)=O)NC(=O)[C@@H](NC(=O)[C@H](C)NC(=O)[C@@H]1CSSC[C@H](NC(=O)[C@@H](N)CCCCNC(=O)COCCOCCNC(=O)CC[C@H](NC(=O)CCCCCCCCCCCCCCCCCCC(=O)O)C(=O)O)C(=O)N[C@@H](CC(N)=O)C(=O)N[C@@H]([C@@H](C)O)C(=O)N[C@@H](C)C(=O)N[C@@H]([C@@H](C)O)C(=O)N1)[C@@H](C)O)C(=O)N1CCC[C@H]1C(=O)N1CCC[C@H]1C(=O)N[C@@H](CO)C(=O)N[C@H](C(=O)N[C@@H](CC(N)=O)C(=O)N[C@H](C(=O)NCC(=O)N1CCC[C@H]1C(=O)N[C@@H](CC(N)=O)C(=O)N[C@H](C(=O)N[C@@H](Cc1ccc(O)cc1)C(N)=O)[C@@H](C)O)C(C)C)[C@@H](C)O
notes: Synthetic analogue; also called compound 55
B6: N^ε1-[2-[2-[2-[[(4S)-4-carboxy-4-(19-carboxynonadecanoylamino)butanoyl]amino]ethoxy]ethoxy]acetyl]-[Arg17,Pro21,Pro27,Pro29,Pro31]-h-amylin (peptide)
peptide: K([AEEA-γGlu-C20 diacid])CNTATCATQRLANFLRHSSPNFGAIPSPTPVGSNTY-NH2
modifications: disulfide 2-7; N-terminus assumed
SMILES: CC[C@H](C)[C@H](NC(=O)[C@H](C)NC(=O)CNC(=O)[C@H](Cc1ccccc1)NC(=O)[C@H](CC(N)=O)NC(=O)[C@@H]1CCCN1C(=O)[C@H](CO)NC(=O)[C@H](CO)NC(=O)[C@H](Cc1c[nH]cn1)NC(=O)[C@H](CCCNC(=N)N)NC(=O)[C@H](CC(C)C)NC(=O)[C@H](Cc1ccccc1)NC(=O)[C@H](CC(N)=O)NC(=O)[C@H](C)NC(=O)[C@H](CC(C)C)NC(=O)[C@H](CCCNC(=N)N)NC(=O)[C@H](CCC(N)=O)NC(=O)[C@@H](NC(=O)[C@H](C)NC(=O)[C@@H]1CSSC[C@H](NC(=O)[C@@H](N)CCCCNC(=O)COCCOCCNC(=O)CC[C@H](NC(=O)CCCCCCCCCCCCCCCCCCC(=O)O)C(=O)O)C(=O)N[C@@H](CC(N)=O)C(=O)N[C@@H]([C@@H](C)O)C(=O)N[C@@H](C)C(=O)N[C@@H]([C@@H](C)O)C(=O)N1)[C@@H](C)O)C(=O)N1CCC[C@H]1C(=O)N[C@@H](CO)C(=O)N1CCC[C@H]1C(=O)N[C@H](C(=O)N1CCC[C@H]1C(=O)N[C@H](C(=O)NCC(=O)N[C@@H](CO)C(=O)N[C@@H](CC(N)=O)C(=O)N[C@H](C(=O)N[C@@H](Cc1ccc(O)cc1)C(N)=O)[C@@H](C)O)C(C)C)[C@@H](C)O
notes: Synthetic analogue; also called compound 54

Tests used:
[1] = target: T1, human calcitonin receptor; experiment: ratio IC50 hCTR / IC50 hAmylin-R (reference: human amylin receptor), SPA competition assays
Summary of the method: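 Scintillation proximity competition binding on cell membranes at 35 ng/μL with SPA beads, in 50 mM Hepes pH 7.4, 1 mM CaCl2, 5 mM MgCl₂, 0.1% OA, 0.02% Tween20. Incubated 120 min at 25° C with shaking. IC₅₀ from one-site competition fit.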

[2] = target: T1, human calcitonin receptor; experiment: SPA competition with 125I-calcitonin on membranes of BHK cells with human calcitonin receptor (Assay VII)
Summary of the method: (§1)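 BHK hCTR membranes 35 ng/μL + SPA beads 0.05 mg/well; buffer 50 mM Hepes pH 7.4, 1 mM CaCl2, 5 mM MgCl₂, 0.1% OA, 0.02% Tween20. 120 min, 25° C., shaking. Scintillation count; IC50 by one-site binding competition.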

[3] = target: T2, human amylin receptor (amylin 3(a) …); experiment: SPA competition with 125I-rat amylin on membranes of BHK cells with human calcitonin receptor and RAMP-3 (Assay V)
Summary of the method: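 Membranes from BHK Amylin 3(a)/CRE-luc cells (35 ng/μL final) were mixed with SPA beads and test compounds in 50 mM Hepes pH 7.4 with 1 mM CaCl2, 5 mM MgCl₂, 0.1% OA and 0.02% Tween20. Incubation ran 120 min at 25° C with shaking; IC₅₀ came from one-site competition fitting.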

[4] = target: T3, human calcitonin receptor; experiment: SPA radioligand competition (125I-calcitonin), membranes of BHK cells with human calcitonin receptor
Summary of the method: as §1

Binder	Ratio hCT/hAmylin binding [1]	IC50 [2] [nM]	IC50 [3] [nM]	IC50 [4] [nM]
B1	36.2	7.87	0.217	
B2	100	35	0.348	
B3				5.38
B4				2.09
B5				2.17
B6				4.38
